The results in this text go back to patent US5565354 (Sandoz Ltd., dated 1996).

Where only a bound is given, the exact number is not on record here.

In test [1] the target is hepatitis B surface antigen (HBsAg), preparation and subtype not stated (hepatitis B virus). As to the kind of experiment: AUSAB radioimmunoassay (Abbott), compared on a weight basis.
In test [2] the target is HBsAg of control HBsAg-positive serum (hepatitis B virus). Kind of test: sandwich RIA, PE1-1 solid-adsorbed and ZM1-2 125I-labelled; the control itself.
The target of test [3] is serum-derived variant HBsAg of Patient #2 (hepatitis B virus). As to the kind of experiment: sandwich RIA, PE1-1 solid-adsorbed and ZM1-2 125I-labelled, patient serum HBsAg.
Test [4] deals with serum-derived variant HBsAg, sample 'Patient #3 (264)' (hepatitis B virus). The test is described as above.
Test [5] has as its target serum-derived variant HBsAg, sample 'Patient #4 (251)' (hepatitis B virus). The test is described as above.
For test [6], the target named is T1, HBsAg subtype ayw (hepatitis B virus, UniProt P03138). Kind of test: solid phase RIA, 125I-labelled antibody on solid adsorbed HBsAg ayw, room temperature.
Test [7] concerns the target T1, HBsAg subtype ayw. As to the kind of experiment: inhibition ELISA, soluble HBsAg ayw pre-incubated with antibody, HBsAg-coated well, 37 C. For orientation: ELISA stands for enzyme-linked immunosorbent assay.
In test [8] the target is HBsAg in serum from a hepatitis B positive patient (hepatitis B virus).
For test [9], the target named is HBsAg of control HBsAg-positive serum (hepatitis B virus). Kind of test: sandwich RIA, solid-adsorbed and 125I-labelled ZM1-2; the control itself.
Test [10] concerns the target serum-derived variant HBsAg of Patient #2 (hepatitis B virus). As to the kind of experiment: sandwich RIA, solid-adsorbed and 125I-labelled ZM1-2, patient serum HBsAg.
The target of test [11] is serum-derived variant HBsAg, sample 'Patient #3 (264)' (hepatitis B virus). Described as above.
Test [12] addresses serum-derived variant HBsAg, sample 'Patient #4 (251)' (hepatitis B virus). The test is described as above.

B1: human monoclonal antibody PE1-1 (antibody, V domains shown)
VH: QVQLVESGGGVVQPGRSLRLSCAASGFTFSRYGMHWVRQAPGKGLEWVAVISYDGSNKWYADSVKGRFTISRDNSKNTLFLQMHSLRAADTGVYYCAKDQLYFGSQSPGHYWVQGTLVTVSS
VL: QSQLTQPPSVSVAPGQTARITCGGDNIGSKSVNWFQQKPGQAPVLVVYDDNERPSGISERFSGSNSGNTATLTISRVEAGDEADYYCQVWDSSSDHVVFGGGTKLTVL
In test [1], B1 came in with a potency relative to the Bureau of Biologics reference hepatitis B immune globin of 435 times. Also, in [1], the potency relative to the commercial hepatitis B immune globulin preparations was more than 200 times. Also, the relative reactivity (relative to control) worked out at 1 in test [2], 0.07 in [3], 0.173 in test [4] and 0.024 in [5]. Also, the Ka with HBsAg subtype ayw [6] is 3.6e+09 M⁻¹; in the test with HBsAg subtype ayw [7], approximately 2e+09 M⁻¹.

B2: human monoclonal antibody ZM1-2 (antibody, V domains shown)
VH: QVQLQESGPGLVKAAETLSLTCTVSRGSFSDYFWNWFRQPAGKRLEWLGRVYTSGSVDYNPSLKSRVTVSVDTSKKQFSLRLSSVTVADTAVYYCARGLSGFDYWGQGALVTVSP
VL: DIQMTQSPSSVSASVGDRVTVTCRASQGISSWLAWYQQKPGKAPKLLIHAASSLQSGVPSRFIGSGSGTDFTLTITSLQAEDFATYYCQQADSLPFTFGGGTKVDFKR
A word on the IC50: it is the concentration that gives 50% inhibition. Read a high IC50 as weaker potency. Take B2: in [8], the IC50 is 0.076 µg/mL. For the same molecule, the relative reactivity (relative to control) amounted to 1 in test [9], 0.233 in test [10], 0.179 in [11] and 0.01 in [12]. Also, the results for the Ka with HBsAg subtype ayw [6] and with HBsAg subtype ayw [7] were 1.5e+09 M⁻¹ and approximately 7e+08 M⁻¹, respectively.

B3: human monoclonal antibody ZM1-1 (antibody, V domains shown)
VH: EVQLVESGGGLVQPGGSLRLSCAASGFTFSRYDMYWVRQATGKGLEWVSAIGPTGDTYYADSVKGRFTISRENAKNSLYLTMNGLRAGDTAVYYCARDLELWGQGTLVTVSS
VL: DVVVTQSPLSLPVTLGQPASISCRSSLSLVDSDGNTYLNWFLQRPGQSPRRLIYQLSSRDSGVPDRFSGSGSGTDFTLKISRVEAEDVGVYYCMQGTHWPITFGQGTRLEIKR
In the case of B3, the Ka is 5e+09 M⁻¹ in the test with HBsAg subtype ayw [6] and approximately 1e+08 M⁻¹ with HBsAg subtype ayw [7].
